Assay results published in patent publication CN1886424A (dated 2006).

B1: EM164抗体的Fab片段 (Fab fragment of EM164, papain digest) (Fab, V domains shown)
VH: QVQLQQSGAELVKPGASVKLSCKASGYTFTSYWMHWVKQRPGQGLEWIGEINPSNGRTNYNEKFKRKATLTVDKSSSTAYMQLSSLTSEDSAVYYFARGRPDYYGSSKWYFDVWGAGTTVTVSS
VL: DVLMTQTPLSLPVSLGDQASISCRSSQSIVHSNVNTYLEWYLQKPGQSPKLLIYKVSNRFSGVPDRFSGSGSGTDFTLRISRVEAEDLGIYYCFQGSHVPPTFGGGTKLEIKR
notes: also called EM164 Fab
B2: 鼠抗IGF-I受体抗体EM164 (murine anti-IGF-I receptor antibody EM164) (antibody, V domains shown)
VH: QVQLQQSGAELVKPGASVKLSCKASGYTFTSYWMHWVKQRPGQGLEWIGEINPSNGRTNYNEKFKRKATLTVDKSSSTAYMQLSSLTSEDSAVYYFARGRPDYYGSSKWYFDVWGAGTTVTVSS
VL: DVLMTQTPLSLPVSLGDQASISCRSSQSIVHSNVNTYLEWYLQKPGQSPKLLIYKVSNRFSGVPDRFSGSGSGTDFTLRISRVEAEDLGIYYCFQGSHVPPTFGGGTKLEIKR
notes: Purified from hybridoma; also called EM164抗体; muEM164

Experiments:
[1] = target: T1, 纯化的/生物素化的全长人IGF-I受体 (purified, biotinylated full-length human IGF-I receptor) (human, UniProt P08069 31-1367, biotinylated with PEO-maleimide-biotin (Kd and competition ELISAs); unmodified when coated directly); experiment: ELISA titration of the Fab on human IGF-I receptor
T1 construct: mature; also called 生物素化的IGF-I受体; 纯化的人IGF-I受体

[2] = target: 人肿瘤细胞上的人IGF-I受体 (endogenous human IGF-I receptor of human tumour cells: MCF-7, NCI-H838, SaOS-2 and others) (human) (UniProt P08069); experiment: displacement of biotin-IGF-I from MCF-7 cells at 37℃, 30 min, 10-100 μg/mL antibody; capture ELISA
[3] = target: T1, 纯化的/生物素化的全长人IGF-I受体 (purified, …); experiment: ELISA titration on biotinylated human IGF-I receptor captured on streptavidin, one-site non-linear regression
[4] = target: 人肿瘤细胞上的人IGF-I受体 (endogenous human IGF-I receptor of human tumour cells: MCF-7, NCI-H838, SaOS-2 and others) (human) (UniProt P08069); experiment: displacement of biotin-IGF-I from MCF-7 cells at 4℃, 2 h; capture ELISA
[5] = target: 人肿瘤细胞上的人IGF-I受体 (endogenous human IGF-I receptor of human tumour cells: MCF-7, NCI-H838, SaOS-2 and others) (human) (UniProt P08069); experiment: cell-based or functional assay
[6] = target: 过量表达于3T3样细胞上的人Y1251F IGF-I受体 (human IGF-I receptor with Y1251F mutation on 3T3-like cells) (human) (UniProt P08069); experiment: cell ELISA on dried cells overexpressing human Y1251F IGF-I receptor, 12 min colour development

T1 sequence (P08069 31-1367 limits assumed): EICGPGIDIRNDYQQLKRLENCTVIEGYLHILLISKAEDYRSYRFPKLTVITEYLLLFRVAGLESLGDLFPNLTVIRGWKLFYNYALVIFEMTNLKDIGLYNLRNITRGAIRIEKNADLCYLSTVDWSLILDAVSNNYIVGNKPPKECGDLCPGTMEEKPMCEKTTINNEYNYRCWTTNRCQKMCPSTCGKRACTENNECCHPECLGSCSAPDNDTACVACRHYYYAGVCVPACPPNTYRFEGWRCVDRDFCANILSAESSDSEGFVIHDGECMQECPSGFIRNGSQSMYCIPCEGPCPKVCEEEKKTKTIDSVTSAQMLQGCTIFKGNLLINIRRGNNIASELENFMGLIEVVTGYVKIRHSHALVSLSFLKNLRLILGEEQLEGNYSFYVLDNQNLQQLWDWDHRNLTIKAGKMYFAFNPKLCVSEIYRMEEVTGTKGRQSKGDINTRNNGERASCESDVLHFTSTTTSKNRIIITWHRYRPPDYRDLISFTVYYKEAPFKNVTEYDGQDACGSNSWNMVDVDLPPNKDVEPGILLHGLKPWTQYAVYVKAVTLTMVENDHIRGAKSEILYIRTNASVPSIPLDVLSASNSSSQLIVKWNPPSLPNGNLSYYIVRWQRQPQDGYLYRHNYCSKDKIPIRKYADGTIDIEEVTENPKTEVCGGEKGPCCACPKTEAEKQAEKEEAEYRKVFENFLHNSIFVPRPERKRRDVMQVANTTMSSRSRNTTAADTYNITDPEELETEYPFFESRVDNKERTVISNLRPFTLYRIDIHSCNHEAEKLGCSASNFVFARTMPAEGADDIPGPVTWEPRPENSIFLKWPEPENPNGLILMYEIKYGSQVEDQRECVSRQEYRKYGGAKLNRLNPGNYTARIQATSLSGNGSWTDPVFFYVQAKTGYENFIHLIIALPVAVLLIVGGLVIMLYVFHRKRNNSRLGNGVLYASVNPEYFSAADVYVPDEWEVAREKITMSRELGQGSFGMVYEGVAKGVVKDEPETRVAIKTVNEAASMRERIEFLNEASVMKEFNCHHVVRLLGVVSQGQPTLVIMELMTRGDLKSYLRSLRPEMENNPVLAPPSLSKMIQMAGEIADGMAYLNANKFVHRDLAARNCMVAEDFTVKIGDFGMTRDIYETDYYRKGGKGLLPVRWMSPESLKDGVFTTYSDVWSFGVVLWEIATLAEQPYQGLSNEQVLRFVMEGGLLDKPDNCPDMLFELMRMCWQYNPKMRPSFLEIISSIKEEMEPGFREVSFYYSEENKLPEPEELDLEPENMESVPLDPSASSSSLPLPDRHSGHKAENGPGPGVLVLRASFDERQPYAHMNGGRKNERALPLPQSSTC

Binder	Kd [1] [pM]	percent displacement of pre-bound biotinylated IGF-I [2] [%]	Kd [3] [pM]	percent displacement of pre-bound biotinylated IGF-I [4] [%]	MCF-7 cell cycle, percent of cells in G0/G1 phase with IGF-I (20 ng/mL) plus EM164 (20 μg/mL); 50% without EM164 [5] [%]	MCF-7 cell cycle, percent of cells in S phase with IGF-I (20 ng/mL) plus EM164 (20 μg/mL); 41% without EM164 [5] [%]	percent inhibition of IGF-I-stimulated growth in serum-free medium, MTT assay, A 375 (melanoma) [5] [%]	percent inhibition of IGF-I-stimulated growth in serum-free medium, MTT assay, A431 (epidermoid) [5] [%]	percent inhibition of IGF-I-stimulated growth in serum-free medium, MTT assay, Calu-6 [5] [%]	percent inhibition of IGF-I-stimulated growth in serum-free medium, MTT assay, Colo 205 (colon) [5] [%]	percent inhibition of IGF-I-stimulated growth in serum-free medium, MTT assay, HT-29 [5] [%]	percent inhibition of IGF-I-stimulated growth in serum-free medium, MTT assay, SK-Mel-37 [5] [%]	percent inhibition of IGF-I-stimulated growth in serum-free medium, MTT assay, SK-N-SH (neuroblastoma) [5] [%]	absorbance (cell ELISA signal) (absorbance units) [6]
B1	300													
B2		90	100	50	77	9	90	85	85	50	60	85	85	0.88
